Source: paper PMC3099712

Assays:
[1] = target: GFP-tagged human IGFLR1 on HEK293T cells (human); test: radioligand binding
[2] = target: GFP-tagged mouse IGFLR1 on HEK293T cells (mouse); test: radioligand binding

Sequence of FLAG-IGFL1 (human insulin growth factor-like family member 1) (Q6UW32 24-110): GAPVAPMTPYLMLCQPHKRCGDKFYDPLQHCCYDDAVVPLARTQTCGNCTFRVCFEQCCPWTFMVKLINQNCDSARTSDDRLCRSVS
Sequence of FLAG-mIGFL (mouse insulin growth factor-like protein) (Q6B9Z0 24-140): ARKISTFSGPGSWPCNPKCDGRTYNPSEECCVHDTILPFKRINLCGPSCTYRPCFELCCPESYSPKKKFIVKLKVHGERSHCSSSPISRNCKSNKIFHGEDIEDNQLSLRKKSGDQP

| Substance | Kd [1] [nM] | Kd [2] [nM] |
| --- | --- | --- |
| FLAG-IGFL1 (human insulin growth factor-like family member 1) (from UniProt Q6UW32 24-110) (ligand) | 0.31 |  |
| FLAG-mIGFL (mouse insulin growth factor-like protein) (from UniProt Q6B9Z0 24-140) (ligand) |  | 0.73 |
